In patent US6770740B1, “Crosslinked DNA condesate compositions and gene delivery methods” (The Regents of the University of Michigan, priority 1999, dated 2004):
Where no end group is shown, it is not given here. The star is where a group is joined. Carboxymethyl = O=C(O)C*

How the values were obtained:
plasmid DNA = experiment: Fluorescent dye (thiazole orange) displacement assay of peptide binding to DNA, Example 1; settings: corresponding to a charge ratio of 1.8:1
Description: Peptide DNA condensates were formed by adding 75 μg of DNA (pCMVL in 750 μl of 5 mM Hepes pH 7.4) to varying amounts of peptide (7.5 to 90 nmol in 750 μl of Hepes) while vortexing, followed by equilibration at RT for 1 h. Peptide binding to DNA was monitored by a fluorescent dye displacement assay (Wadhwa et al. 1997). A 1 μg aliquot of the peptide DNA condensate was diluted to 1 ml in Hepes containing 0.1 μM thiazole orange. The fluorescence of the intercalated dye was measured on an LS50B fluorimeter (Perkin Elmer, UK) in a microcuvette by exciting at 500 nm while monitoring emission at 530 nm.

[1] = QELS particle size and zeta potential of PEG-peptide DNA condensates and co-condensates, Example 1; format: physicochemical; settings: charge ratio of 1.8:1 or higher; 50 μg/ml DNA in Hepes
Description: The particle size of peptide DNA condensates were analyzed at a DNA concentration of 50 μg/ml in Hepes by quasielastic light scattering (QELS). The particle surface change was determined by zeta potential analysis using a Brookhaven ZetaPlus™ (Brookhaven Instruments).
DNA co-condensates were prepared by add-mixing AlkCWK18 and PEG-VS-CWK18 in ratios ranging from 0 to 100 mol %, and condensing DNA at a charge ratio of 2.3:1 as described above. To establish the mol ratio of peptides bound to DNA, condensates were dialyzed in a fixed volume (0.5 ml) dialyzer for 75 h against water using a 100,000 MWCO membrane. Peptide DNA condensates in the retentate (0.5 ml) were dissociated by adding 50 μl of 5 M sodium chloride in 0.1% TFA. AlkCWK18 and PEG-VS-CWK18 were quantified by injecting 1 nmol of peptide (100 μl) onto analytical RP-HPLC eluted with 0.1% TFA and a gradient of acetonitrile (5 to 65% over 30 min) while detecting tryptophan by fluorescence (λex 280 nm, λem 350 nm). The peak integration areas were used to quantify AlkCWK18 and PEG-VS-CWK18 with reference to standard curves developed for each peptide.

[2] = Solubility of peptide DNA condensates: particle size as a function of DNA concentration; format: physicochemical; settings: when increasing DNA concentration from 50 to 500 μg/ml
[3] = Particle size and zeta potential of peptide DNA condensates after freeze-drying and rehydration, Example 2; format: physicochemical
Description: The concentration of AlkCWK18 and PEG-CWK18 were determined by UV absorbance (Trp, ε280 nm=5,600 M^−1 cm^−1). Peptide DNA condensates were prepared in 5 mM Hepes pH 5 at a peptide/DNA stoichiometry of 0.3 nmol of peptide/μg of DNA. The condensates were formed by adding 450 μL of 100 μg/mL NT-βGal drop wise to 450 μL of 30 nmol/mL AlKCWK18 or PEG-CWK18 while vortexing. Each sample was prepared in triplicate, and after a 30 min equilibration, 20-100 μL of 50 wt/vol % solutions of either glucose, mannitol, galactose, dextran or sucrose were added followed by normalization to 1 mL to give a final sugar concentration of 1-5 wt/vol % and DNA concentration of 50 μg/mL.
The mean particle size of 50 μg/mL AlkCWK18 DNA condensates were determined by quasielastic light scattering (QELS) on a Brookhaven ZetaPlus™. Samples (1 mL) were frozen rapidly in dry ice ethanol in a 1.5 mL microcentrifuge tube and then lyophilized on a Labconco™ freeze dryer for 24 h operated at a constant vacuum of 55×10^−6 mBar while maintained at room temperature (22° C.). The maximal vacuum was achieved within 2 min after applying the sample.
At the highest sucrose concentration of 5 wt/vol %, samples remained frozen throughout freeze-drying but dried to form a glassy solid after 24 h. […] Freeze-dried samples prepared in triplicate were reconstituted in 1 mL of deionized water, allowed to equilibrate for 30 min and then analyzed by QELS as described above. Large peptide DNA condensates were measured by light microscopy with magnification of 100X. The particle size of PEG-peptide DNA condensates were also measured by transmission electron microscopy (TEM) according to a published procedure (Wadhwa et al., 1997).
The relationship between pH and rehydrated peptide DNA condensate particle size was examined in 5 mM Hepes at a pH range of 3-7. The particle size of 50 μg/mL DNA condensates in 5 wt/vol % sucrose was determined by QELS before and after freeze-drying as described above.
The rehydrated particle size of AlkCWK18 or PEG-CWK18 DNA condensates were also examined at a concentration of 0.05-5 mg/mL in 5 mM Hepes pH 5 with (AlkCWK18 DNA) or without (PEG-CWK18 DNA) the addition of 5 wt/vol % sucrose. DNA condensates were freeze-dried and reconstituted to the original concentration. QELS particle size analysis before and after freeze-drying required dilution of an aliquot of the sample to concentration of 50 μg/mL. Freeze-dried 5 mg/mL PEG-CWK18 DNA condensates were also reconstituted in 0.9 wt/vol % sodium chloride and analyzed for particle size.

COS 7 cells [4] = experiment: Luciferase reporter gene expression in COS 7 cells, Example 5; format: cell-based
COS 7 cells [5] = experiment: Nuclear targeted β-galactosidase (X-gal) count of transfected COS 7 cells; format: cell-based; settings: COS 7, 48 h, NTβGal plasmid
Description: The number of cells transfected in vitro was examined using a plasmid encoding nuclear targeted β-galactosidase followed by X-gal (5-bromo-4-chloro-3-indolyl-β-galactopyranoside) staining. HepG2 and COS 7 cells were transfected for 5 h as described above with either AlkCWK18 DNA, peptide II DNA condensates, or plasmid DNA and then grown in fresh media for an additional 43 h. After removing media, cells were fixed for 5 min in phosphate-buffered saline (PBS, pH 7.3) containing 1.25 vol/vol % glutaraldehyde and then stained by incubation with 0.05 wt/v % X-gal, 1 mM magnesium chloride, 10 mM potassium ferricyanide, and 10 mM potassium ferrocyanide in PBS. After 4 h at 37° C., the X-gal solution was removed and the nuclear stained blue cells were counted with a light microscope under ten power magnification by averaging the number of transfectants from nine fields. Values were analyzed for significance by one-way analysis of variance.

## Alk-S-Cys-Trp-Lys18 (C(Carboxymethyl)WKKKKKKKKKKKKKKKKKK) [AlkCWK18]
Plasmid DNA
  peptide:DNA stoichiometry at the asymptote of the dye displacement titration curve (relative DNA binding affinity): 0.3 nmol per μg of DNA
[1]
  mean diameter of DNA condensates: 60 nm
[2]
  particle size of DNA condensates: 60 to 400 nm
[3]; 50 μg/ml DNA condensates
  minimum sucrose concentration to bulk DNA condensates during freeze-drying: 1 wt/vol %
[3]; 50 μg/ml DNA condensates, light microscopy
  diameter of fibrous flocculates after freeze-drying and rehydration without lyoprotectant: approximately 100 μm
[3]; 5 wt/vol % sucrose, 5 mM Hepes pH 5
  upper limit of DNA condensate concentration below which rehydrated particle size was maintained: 200 µg/mL
[3]; 5 wt/vol % sucrose, DNA concentrations up to 200 μg/mL
  mean particle diameter during rehydration: less than 50 nm
[3]; pH 3
  zeta potential: +30 mV

## Cys-Trp-Lys17-Cys (CWKKKKKKKKKKKKKKKKKC) [Peptide II]
COS 7 cells [4]
  increase in luciferase gene expression relative to AlkCWK18: 10 fold
COS 7 cells [5]
  more cells positively stained vs. AlkCWK18: 4 fold
